In data set [1] the target is FOXP2 FHD-END. As to the kind of experiment: SEC; 20 µM protein incubated at 20°C for at least 30 min; HiLoad 16/60 Superdex 75 prep grade; running buffer 500 mM NaCl, 10 mM HEPES pH 7.5, 2 mM DTT; calibrated with 12-200 kDa markers; oligomer size predicted from the monomeric size.
For data set [2], the target named is FOXP2 LZ-END. As to the kind of experiment: SEC; 20 µM protein incubated at 20°C for at least 30 min; Superdex 200 10/300 GL; running buffer 500 mM NaCl, 10 mM HEPES pH 7.5, 2 mM DTT; calibrated with 12-200 kDa markers; oligomer size predicted from the monomeric size.
For data set [3], the target named is FOXP1 LZ-END. Described as above.
For data set [4], the target named is T1, FOXP2 LZ-END (UniProt O15409 372-715).
T1 sequence: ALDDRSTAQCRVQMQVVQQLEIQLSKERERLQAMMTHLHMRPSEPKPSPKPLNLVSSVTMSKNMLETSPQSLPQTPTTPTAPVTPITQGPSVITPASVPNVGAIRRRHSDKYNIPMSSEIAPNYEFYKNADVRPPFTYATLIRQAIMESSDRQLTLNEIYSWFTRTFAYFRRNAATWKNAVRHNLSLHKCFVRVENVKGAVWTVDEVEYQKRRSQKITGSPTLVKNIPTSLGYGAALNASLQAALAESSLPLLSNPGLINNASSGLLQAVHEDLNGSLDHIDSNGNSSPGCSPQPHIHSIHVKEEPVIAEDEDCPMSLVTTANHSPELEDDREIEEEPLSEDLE
As to the kind of experiment: fluorescence anisotropy; FA: 10 mM HEPES pH 7.5, 100 mM NaCl, 0.02% NaN3, 500 nM DNA, temperature not stated; EMSA: 10 mM HEPES pH 7.5, 1 mM MgCl2, 100 mM KCl, 10% glycerol, 0.1 mg/ml BSA, 500 nM DNA, on ice, gel at 4 C. The conditions noted are these: protein: recombinant; (purified by nickel IMAC); chain copies: 8; blunt. (Polarisation of emitted light reports the rotation of a fluorescent probe.)

Another data set deals with T2, FOXP1 LZ-FHD (UniProt Q9H334 332-555).
T2 sequence: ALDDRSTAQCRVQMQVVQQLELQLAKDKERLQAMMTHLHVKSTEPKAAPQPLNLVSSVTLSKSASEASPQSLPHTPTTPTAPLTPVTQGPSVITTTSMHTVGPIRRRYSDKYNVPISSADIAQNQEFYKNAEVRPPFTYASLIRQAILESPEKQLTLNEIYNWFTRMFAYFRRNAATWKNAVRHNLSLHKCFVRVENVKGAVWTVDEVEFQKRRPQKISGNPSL
The data set is described as above. The conditions noted are these: protein: recombinant; chain copies: 2; blunt.

The target of a further data set is T3, FOXP2 FHD (UniProt O15409 504-594).
T3 sequence: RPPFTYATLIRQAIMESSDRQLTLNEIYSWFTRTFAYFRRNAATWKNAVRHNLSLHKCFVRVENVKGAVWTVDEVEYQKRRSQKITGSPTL
The data set is described as above. The conditions noted are these: protein: recombinant; (purified by nickel IMAC); blunt.

Data set [5] deals with T4, FOXP1 LZ-END (UniProt Q9H334 332-677).
T4 sequence: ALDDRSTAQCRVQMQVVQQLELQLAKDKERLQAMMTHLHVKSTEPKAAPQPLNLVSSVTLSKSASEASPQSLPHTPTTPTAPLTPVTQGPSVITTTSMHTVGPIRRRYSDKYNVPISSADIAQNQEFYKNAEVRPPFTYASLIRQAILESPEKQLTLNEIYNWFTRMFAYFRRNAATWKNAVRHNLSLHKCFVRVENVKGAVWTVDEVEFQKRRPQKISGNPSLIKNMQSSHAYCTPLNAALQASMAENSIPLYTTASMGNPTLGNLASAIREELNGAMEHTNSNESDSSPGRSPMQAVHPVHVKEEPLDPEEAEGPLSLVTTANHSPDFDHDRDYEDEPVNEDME
The description is as above. The conditions noted are these: protein: recombinant; (purified by nickel IMAC); chain copies: 4; blunt.

Data set [6] addresses T5, FOXP2 FHD-END (UniProt O15409 504-715).
T5 sequence: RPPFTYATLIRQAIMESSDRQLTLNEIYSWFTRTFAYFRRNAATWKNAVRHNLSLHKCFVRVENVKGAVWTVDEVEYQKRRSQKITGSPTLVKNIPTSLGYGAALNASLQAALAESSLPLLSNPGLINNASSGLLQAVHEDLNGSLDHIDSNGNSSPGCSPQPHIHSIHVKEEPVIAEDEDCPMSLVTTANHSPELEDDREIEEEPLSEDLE
The data set is described as above. The conditions noted are these: protein: recombinant; (purified by nickel IMAC); chain copies: 2; blunt.

For the next data set, the target named is T6, FOXP2 LZ-FHD (UniProt O15409 372-594).
T6 sequence: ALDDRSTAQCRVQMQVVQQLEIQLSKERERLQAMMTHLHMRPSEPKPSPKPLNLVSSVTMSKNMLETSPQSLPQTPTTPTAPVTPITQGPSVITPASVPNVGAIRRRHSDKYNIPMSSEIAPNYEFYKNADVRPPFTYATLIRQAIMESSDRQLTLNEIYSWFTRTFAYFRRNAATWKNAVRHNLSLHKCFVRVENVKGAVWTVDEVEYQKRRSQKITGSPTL
The description is as above. The conditions noted are these: protein: recombinant; (purified by nickel IMAC); chain copies: 2; blunt.

Among the data in paper PMC7789814, “The influence of various regions of the FOXP2 sequence on its structure and DNA-binding function” are stoichiometry N, percent of the species in the larger oligomer and Kd values, retold here.

As usually defined, the stoichiometry N is a count of units in the complex or per binding partner. Regarding FOXP2 FHD-END (domain or fragment), the stoichiometry N with FOXP2 FHD-END [1] was 2.

In the case of FOXP2 LZ-END (domain or fragment), in the data set with FOXP2 LZ-END [2], the percent of the species in the larger oligomer was 70% and the stoichiometry N is < 8.

As to FOXP1 LZ-END (domain or fragment), in the data set with FOXP1 LZ-END [3], the percent of the species in the larger oligomer was 60% and the stoichiometry N was 4.

B1: FOXP2 cognate DNA, ROX-labelled (dsDNA)
DNA 1: TTAGGTGTTTACTTTCATAG
DNA 2: CTATGAAAGTAAACACCTAA
As a reminder, the Kd is the free concentration of one partner at which half of the binding sites on the other are occupied at equilibrium, for simple one-to-one binding. Regarding B1, the Kd in the data set with FOXP2 LZ-END [4] was 326 ± 73.2 nM; in the data set with FOXP1 LZ-FHD it was 766 ± 12.1 nM; in the data set with FOXP2 FHD, 1746 ± 15.9 nM; with FOXP1 LZ-END [5], 1280 ± 70.4 nM; with FOXP2 FHD-END [6], 1900 ± 25.1 nM; in the data set with FOXP2 LZ-FHD it was 347 ± 55.4 nM.
